According to the supplement of paper PMC10266784:

B1: library; numbered along this chain (parent)
chain: MAAAAAAAAEQQSSNGPVKKSMREKAVERRSVNKEHNSNFKAGYIPIDEDRLHKTGLRGRKGNLAICVIILLFILAVINLIITLVIWAVIRIGPNGCDSMEFHESGLLRFKQVSDMGVIHPLYKSTVGGRRNENLVITGNNQPIVFQQGTTKLSVENNKTSITSDIGMQFFDPRTQNILFSTDYETHEFHLPSGVKSLNVQKASTERITSNATSDLNIKVDGRAIVRGNEGVFIMGKTIEFHMGGNMELKAENSIILNGSVMVSTTRLPSSSSGDQLGSGDWVRYKLCMCADGTLFKVQVTSQNMGCQISDNPCGNTH

Variants of: B1
Assay: SGCB cell-surface expression functional score (HA stain, bin4 vs bin1, normalised to synonymous) (log10 ratio); higher = more cell-surface SGCB (functional)
How it was run: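 Using lentivirus at MOI <0.1, HA-tagged, YFP-fused human beta-sarcoglycan codon-saturation libraries were put into HEK293 cells with stable alpha-, gamma- and delta-sarcoglycan expression, in duplicate transductions. YFP-positive cells were collected by sorting 72 hours later, grown 5–7 days, stained on ice with Alexa Fluor 647 anti-HA, fixed, sorted into four 5% intensity bins and amplicon-sequenced. The functional score takes the median, across codons and transductions, of the log ratio of highest-bin to lowest-bin variant frequency. Within each section, synonymous variants were scaled to mean 0, SD 0.5.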

Variant	SGCB cell-surface expression functional score (log10)
MAAAAAAAAEQQSSNGPVKKSMREKAVERRSVNKEHNSNFKAGYIPIDEDRLHKTGLRGRKGNLAICVIILLFILAVINLIITLVIWAVIRIGPNGCDSMEFHESGLLRFKQVSDMGVIHPLYKSTVGGRRNENLVITGNNQPIVFQQGTTKLSVENNKTSITSDIGMQFFDPRTQNILFSTDYETHEFHLPSGVKSLNVQKASTERITSNATSDLNIKVDGRAIVRGNEGVFIMGKTIEFHMGGNMELKAENSIILNGSVMVSTTRLPSSSSGDQLGSGDWVRYKTCMCADGTLFKVQVTSQNMGCQISDNPCGNTH [L287T]	-0.72
MAAAAAAAAEQQSSNGPVKKSMREKAVERRSVNKEHNSNFKAGYIPIDEDRLHKTGLRGRKGNLAICVIILLFILAVINLIITLVIWAVIRIGPNGCDSMEFHESGLLRFKQVSDMGVIHPLYKSTVGGRRNENLVITGNNQPIVFQQGTTKLSVENNKTSITSDIGMQFFDPRTQNILFSTDYETHEFHLPSGVKSLNVQKASTERITSNATSDLNIKVDGRAIVRGNEGVFIMGKTIEFHMGGNMELKAENSIILNGSVMVSTTRLPSSSSGDQLGSGDWVRYKSCMCADGTLFKVQVTSQNMGCQISDNPCGNTH [L287S]	-1.02
MAAAAAAAAEQQSSNGPVKKSMREKAVERRSVNKEHNSNFKAGYIPIDEDRLHKTGLRGRKGNLAICVIILLFILAVINLIITLVIWAVIRIGPNGCDSMEFHESGLLRFKQVSDMGVIHPLYKSTVGGRRNENLVITGNNQPIVFQQGTTKLSVENNKTSITSDIGMQFFDPRTQNILFSTDYETHEFHLPSGVKSLNVQKASTERITSNATSDLNIKVDGRAIVRGNEGVFIMGKTIEFHMGGNMELKAENSIILNGSVMVSTTRLPSSSSGDQLGSGDWVRYKPCMCADGTLFKVQVTSQNMGCQISDNPCGNTH [L287P]	0.16
MAAAAAAAAEQQSSNGPVKKSMREKAVERRSVNKEHNSNFKAGYIPIDEDRLHKTGLRGRKGNLAICVIILLFILAVINLIITLVIWAVIRIGPNGCDSMEFHESGLLRFKQVSDMGVIHPLYKSTVGGRRNENLVITGNNQPIVFQQGTTKLSVENNKTSITSDIGMQFFDPRTQNILFSTDYETHEFHLPSGVKSLNVQKASTERITSNATSDLNIKVDGRAIVRGNEGVFIMGKTIEFHMGGNMELKAENSIILNGSVMVSTTRLPSSSSGDQLGSGDWVRYKWCMCADGTLFKVQVTSQNMGCQISDNPCGNTH [L287W]	-1.34
MAAAAAAAAEQQSSNGPVKKSMREKAVERRSVNKEHNSNFKAGYIPIDEDRLHKTGLRGRKGNLAICVIILLFILAVINLIITLVIWAVIRIGPNGCDSMEFHESGLLRFKQVSDMGVIHPLYKSTVGGRRNENLVITGNNQPIVFQQGTTKLSVENNKTSITSDIGMQFFDPRTQNILFSTDYETHEFHLPSGVKSLNVQKASTERITSNATSDLNIKVDGRAIVRGNEGVFIMGKTIEFHMGGNMELKAENSIILNGSVMVSTTRLPSSSSGDQLGSGDWVRYKNCMCADGTLFKVQVTSQNMGCQISDNPCGNTH [L287N]	-2.02
MAAAAAAAAEQQSSNGPVKKSMREKAVERRSVNKEHNSNFKAGYIPIDEDRLHKTGLRGRKGNLAICVIILLFILAVINLIITLVIWAVIRIGPNGCDSMEFHESGLLRFKQVSDMGVIHPLYKSTVGGRRNENLVITGNNQPIVFQQGTTKLSVENNKTSITSDIGMQFFDPRTQNILFSTDYETHEFHLPSGVKSLNVQKASTERITSNATSDLNIKVDGRAIVRGNEGVFIMGKTIEFHMGGNMELKAENSIILNGSVMVSTTRLPSSSSGDQLGSGDWVRYKVCMCADGTLFKVQVTSQNMGCQISDNPCGNTH [L287V]	-0.04
MAAAAAAAAEQQSSNGPVKKSMREKAVERRSVNKEHNSNFKAGYIPIDEDRLHKTGLRGRKGNLAICVIILLFILAVINLIITLVIWAVIRIGPNGCDSMEFHESGLLRFKQVSDMGVIHPLYKSTVGGRRNENLVITGNNQPIVFQQGTTKLSVENNKTSITSDIGMQFFDPRTQNILFSTDYETHEFHLPSGVKSLNVQKASTERITSNATSDLNIKVDGRAIVRGNEGVFIMGKTIEFHMGGNMELKAENSIILNGSVMVSTTRLPSSSSGDQLGSGDWVRYKRCMCADGTLFKVQVTSQNMGCQISDNPCGNTH [L287R]	-1.38
MAAAAAAAAEQQSSNGPVKKSMREKAVERRSVNKEHNSNFKAGYIPIDEDRLHKTGLRGRKGNLAICVIILLFILAVINLIITLVIWAVIRIGPNGCDSMEFHESGLLRFKQVSDMGVIHPLYKSTVGGRRNENLVITGNNQPIVFQQGTTKLSVENNKTSITSDIGMQFFDPRTQNILFSTDYETHEFHLPSGVKSLNVQKASTERITSNATSDLNIKVDGRAIVRGNEGVFIMGKTIEFHMGGNMELKAENSIILNGSVMVSTTRLPSSSSGDQLGSGDWVRYKMCMCADGTLFKVQVTSQNMGCQISDNPCGNTH [L287M]	-2.09
MAAAAAAAAEQQSSNGPVKKSMREKAVERRSVNKEHNSNFKAGYIPIDEDRLHKTGLRGRKGNLAICVIILLFILAVINLIITLVIWAVIRIGPNGCDSMEFHESGLLRFKQVSDMGVIHPLYKSTVGGRRNENLVITGNNQPIVFQQGTTKLSVENNKTSITSDIGMQFFDPRTQNILFSTDYETHEFHLPSGVKSLNVQKASTERITSNATSDLNIKVDGRAIVRGNEGVFIMGKTIEFHMGGNMELKAENSIILNGSVMVSTTRLPSSSSGDQLGSGDWVRYKYCMCADGTLFKVQVTSQNMGCQISDNPCGNTH [L287Y]	-0.22
MAAAAAAAAEQQSSNGPVKKSMREKAVERRSVNKEHNSNFKAGYIPIDEDRLHKTGLRGRKGNLAICVIILLFILAVINLIITLVIWAVIRIGPNGCDSMEFHESGLLRFKQVSDMGVIHPLYKSTVGGRRNENLVITGNNQPIVFQQGTTKLSVENNKTSITSDIGMQFFDPRTQNILFSTDYETHEFHLPSGVKSLNVQKASTERITSNATSDLNIKVDGRAIVRGNEGVFIMGKTIEFHMGGNMELKAENSIILNGSVMVSTTRLPSSSSGDQLGSGDWVRYKKCMCADGTLFKVQVTSQNMGCQISDNPCGNTH [L287K]	-0.59
MAAAAAAAAEQQSSNGPVKKSMREKAVERRSVNKEHNSNFKAGYIPIDEDRLHKTGLRGRKGNLAICVIILLFILAVINLIITLVIWAVIRIGPNGCDSMEFHESGLLRFKQVSDMGVIHPLYKSTVGGRRNENLVITGNNQPIVFQQGTTKLSVENNKTSITSDIGMQFFDPRTQNILFSTDYETHEFHLPSGVKSLNVQKASTERITSNATSDLNIKVDGRAIVRGNEGVFIMGKTIEFHMGGNMELKAENSIILNGSVMVSTTRLPSSSSGDQLGSGDWVRYKQCMCADGTLFKVQVTSQNMGCQISDNPCGNTH [L287Q]	-1.3
MAAAAAAAAEQQSSNGPVKKSMREKAVERRSVNKEHNSNFKAGYIPIDEDRLHKTGLRGRKGNLAICVIILLFILAVINLIITLVIWAVIRIGPNGCDSMEFHESGLLRFKQVSDMGVIHPLYKSTVGGRRNENLVITGNNQPIVFQQGTTKLSVENNKTSITSDIGMQFFDPRTQNILFSTDYETHEFHLPSGVKSLNVQKASTERITSNATSDLNIKVDGRAIVRGNEGVFIMGKTIEFHMGGNMELKAENSIILNGSVMVSTTRLPSSSSGDQLGSGDWVRYKLAMCADGTLFKVQVTSQNMGCQISDNPCGNTH [C288A]	-0.03
MAAAAAAAAEQQSSNGPVKKSMREKAVERRSVNKEHNSNFKAGYIPIDEDRLHKTGLRGRKGNLAICVIILLFILAVINLIITLVIWAVIRIGPNGCDSMEFHESGLLRFKQVSDMGVIHPLYKSTVGGRRNENLVITGNNQPIVFQQGTTKLSVENNKTSITSDIGMQFFDPRTQNILFSTDYETHEFHLPSGVKSLNVQKASTERITSNATSDLNIKVDGRAIVRGNEGVFIMGKTIEFHMGGNMELKAENSIILNGSVMVSTTRLPSSSSGDQLGSGDWVRYKLHMCADGTLFKVQVTSQNMGCQISDNPCGNTH [C288H]	-1
MAAAAAAAAEQQSSNGPVKKSMREKAVERRSVNKEHNSNFKAGYIPIDEDRLHKTGLRGRKGNLAICVIILLFILAVINLIITLVIWAVIRIGPNGCDSMEFHESGLLRFKQVSDMGVIHPLYKSTVGGRRNENLVITGNNQPIVFQQGTTKLSVENNKTSITSDIGMQFFDPRTQNILFSTDYETHEFHLPSGVKSLNVQKASTERITSNATSDLNIKVDGRAIVRGNEGVFIMGKTIEFHMGGNMELKAENSIILNGSVMVSTTRLPSSSSGDQLGSGDWVRYKLEMCADGTLFKVQVTSQNMGCQISDNPCGNTH [C288E]	0.01
MAAAAAAAAEQQSSNGPVKKSMREKAVERRSVNKEHNSNFKAGYIPIDEDRLHKTGLRGRKGNLAICVIILLFILAVINLIITLVIWAVIRIGPNGCDSMEFHESGLLRFKQVSDMGVIHPLYKSTVGGRRNENLVITGNNQPIVFQQGTTKLSVENNKTSITSDIGMQFFDPRTQNILFSTDYETHEFHLPSGVKSLNVQKASTERITSNATSDLNIKVDGRAIVRGNEGVFIMGKTIEFHMGGNMELKAENSIILNGSVMVSTTRLPSSSSGDQLGSGDWVRYKLGMCADGTLFKVQVTSQNMGCQISDNPCGNTH [C288G]	-0.27
MAAAAAAAAEQQSSNGPVKKSMREKAVERRSVNKEHNSNFKAGYIPIDEDRLHKTGLRGRKGNLAICVIILLFILAVINLIITLVIWAVIRIGPNGCDSMEFHESGLLRFKQVSDMGVIHPLYKSTVGGRRNENLVITGNNQPIVFQQGTTKLSVENNKTSITSDIGMQFFDPRTQNILFSTDYETHEFHLPSGVKSLNVQKASTERITSNATSDLNIKVDGRAIVRGNEGVFIMGKTIEFHMGGNMELKAENSIILNGSVMVSTTRLPSSSSGDQLGSGDWVRYKLKMCADGTLFKVQVTSQNMGCQISDNPCGNTH [C288K]	-1.15
MAAAAAAAAEQQSSNGPVKKSMREKAVERRSVNKEHNSNFKAGYIPIDEDRLHKTGLRGRKGNLAICVIILLFILAVINLIITLVIWAVIRIGPNGCDSMEFHESGLLRFKQVSDMGVIHPLYKSTVGGRRNENLVITGNNQPIVFQQGTTKLSVENNKTSITSDIGMQFFDPRTQNILFSTDYETHEFHLPSGVKSLNVQKASTERITSNATSDLNIKVDGRAIVRGNEGVFIMGKTIEFHMGGNMELKAENSIILNGSVMVSTTRLPSSSSGDQLGSGDWVRYKLIMCADGTLFKVQVTSQNMGCQISDNPCGNTH [C288I]	-0.55
MAAAAAAAAEQQSSNGPVKKSMREKAVERRSVNKEHNSNFKAGYIPIDEDRLHKTGLRGRKGNLAICVIILLFILAVINLIITLVIWAVIRIGPNGCDSMEFHESGLLRFKQVSDMGVIHPLYKSTVGGRRNENLVITGNNQPIVFQQGTTKLSVENNKTSITSDIGMQFFDPRTQNILFSTDYETHEFHLPSGVKSLNVQKASTERITSNATSDLNIKVDGRAIVRGNEGVFIMGKTIEFHMGGNMELKAENSIILNGSVMVSTTRLPSSSSGDQLGSGDWVRYKLDMCADGTLFKVQVTSQNMGCQISDNPCGNTH [C288D]	0.01
MAAAAAAAAEQQSSNGPVKKSMREKAVERRSVNKEHNSNFKAGYIPIDEDRLHKTGLRGRKGNLAICVIILLFILAVINLIITLVIWAVIRIGPNGCDSMEFHESGLLRFKQVSDMGVIHPLYKSTVGGRRNENLVITGNNQPIVFQQGTTKLSVENNKTSITSDIGMQFFDPRTQNILFSTDYETHEFHLPSGVKSLNVQKASTERITSNATSDLNIKVDGRAIVRGNEGVFIMGKTIEFHMGGNMELKAENSIILNGSVMVSTTRLPSSSSGDQLGSGDWVRYKLFMCADGTLFKVQVTSQNMGCQISDNPCGNTH [C288F]	-0.71
